According to paper PMC3575576:

Target: E47 (mouse (endogenous in palatal shelves)) (UniProt P15806)
UniProt P15806, sequence (P15806 whole entry): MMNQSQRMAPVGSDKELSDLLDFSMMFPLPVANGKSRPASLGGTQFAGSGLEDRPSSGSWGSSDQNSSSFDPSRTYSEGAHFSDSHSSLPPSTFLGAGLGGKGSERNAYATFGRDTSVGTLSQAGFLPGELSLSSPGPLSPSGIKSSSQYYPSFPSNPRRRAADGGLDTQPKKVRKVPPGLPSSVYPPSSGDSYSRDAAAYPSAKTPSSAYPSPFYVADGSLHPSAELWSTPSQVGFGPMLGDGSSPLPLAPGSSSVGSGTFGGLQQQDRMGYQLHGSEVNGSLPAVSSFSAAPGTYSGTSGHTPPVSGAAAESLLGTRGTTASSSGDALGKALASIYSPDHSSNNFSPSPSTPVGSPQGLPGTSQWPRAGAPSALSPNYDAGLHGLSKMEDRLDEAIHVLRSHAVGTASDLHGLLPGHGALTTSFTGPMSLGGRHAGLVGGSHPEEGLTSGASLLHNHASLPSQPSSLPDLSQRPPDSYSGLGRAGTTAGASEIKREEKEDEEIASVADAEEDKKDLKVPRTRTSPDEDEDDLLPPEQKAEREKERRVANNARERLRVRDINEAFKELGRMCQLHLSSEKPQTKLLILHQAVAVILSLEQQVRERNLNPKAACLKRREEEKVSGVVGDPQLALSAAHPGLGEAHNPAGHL

B1: Twist1 (natural protein)
chain: MMQDVSSSPVSPADDSLSNSEEEPDRQQPASGKRGARKRRSSRRSAGGSAGPGGATGGGIGGGDEPGSPAQGKRGKKSAGGGGGGGAGGGGGGGGGSSSGGGSPQSYEELQTQRVMANVRERQRTQSLNEAFAALRKIIPTLPSDKLSKIQTLKLAARYIDFLYQVLQSDELDSKMASCSYVAHERLSYAFSVWRMEGAWSMSASH
- luciferase activity of the Snail1 promoter (1.7KSnLuc) in MDCK cells transfected with forced Twist1/E47 (T/E) heterodimers, compared with cells transfected with Twist1 alone: 2 fold
